The record followed here is EP2762886A1.

The target of the test is 4E wild type (overexpressed in stably transfected NIH3T3 cells). Description: cell-based or functional assay.

“human promyelocytic leukemia protein PML (overexpressed from pLINKSV40-PML) (from UniProt P29590 1-882)” registered a viability of serum deprived cells (annexin V / propidium iodide flow cytometry) (% viable cells) of 40.
